# Assay results published in article PMC4704560, “Biophysical Characterization of Nucleophosmin Interactions with Human Immunodeficiency Virus Rev and Herpes Simplex Virus US11” (PLoS ONE, 2015).
# B1: NPM1 histone binding domain (NPM1^HBD, aa 120-241), tag cleaved (domain or fragment, UniProt P06748 120-241, looked up)
# chain: EEDAESEDEEEEDVKLLSISGKRSAPGGGSKVPQKKVKLAADEDDDDDDEEDDDEDDDDDDFDDEEAEEKAPVKKSIRDTPAKNAQKSNQNGKDSKPSSTPRSKGQESFKKQEKTPKTPKGP
# notes: source: E. coli (BL21(DE3), pLysS BL21(DE3), CodonPlusRIL or BL21(Rosetta)), purified
# B2: NPM1 oligomerization domain (NPM1^OD, aa 1-122), tag cleaved (domain or fragment, UniProt P06748 1-122, looked up)
# chain: MEDSMDMDMSPLRPQNYLFGCELKADKDYHFKVDNDENEHQLSLRTVSLGAGAKDELHIVEAEAMNYEGSPIKVTLATLKMSVQPTVSLGGFEITPPVVLRLKCGSGPVHISGQHLVAVEED
# notes: as for B1
# B3: NPM1 histone and RNA-binding domains (NPM1^HRBD, aa 120-294), tag cleaved (domain or fragment, UniProt P06748 120-294, looked up)
# chain: EEDAESEDEEEEDVKLLSISGKRSAPGGGSKVPQKKVKLAADEDDDDDDEEDDDEDDDDDDFDDEEAEEKAPVKKSIRDTPAKNAQKSNQNGKDSKPSSTPRSKGQESFKKQEKTPKTPKGPSSVEDIKAKMQASIEKGGSLPKVEAKFINYVKNCFRMTDQEAIQDLWQWRKSL
# notes: also called NPM^HRBD; source: E. coli (BL21(DE3), pLysS BL21(DE3), CodonPlusRIL or BL21(Rosetta)), purified
# B4: HIV-1 Rev full-length (Rev^FL, aa 1-116), tag cleaved (natural protein)
# chain: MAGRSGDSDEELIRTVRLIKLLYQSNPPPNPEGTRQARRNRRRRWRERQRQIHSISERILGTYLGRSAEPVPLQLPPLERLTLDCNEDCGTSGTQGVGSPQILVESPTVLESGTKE
# What was measured:
# [1] = target: HSV-1 US11 full-length (US11^FL, aa 1-152), tag-free (HSV-1) (UniProt P04487); assay: ITC; 1.2 mM NPM1^FL titrated into 60 uM US11^FL; both treated with RNase A; 25 C; apparent Kd; endothermic
# [2] = target: FITC-labelled CIGB-300; assay: fluorescence polarisation; increasing amounts of NPM1 variants, GST-Rev, GST-US11 or GST titrated into 0.1 uM FITC-labelled CIGB-300; 25 C; 30 mM Tris/HCl pH 7.5, 150 mM NaCl, 5 mM MgCl2, 1 mM TCEP; quadratic ligand binding equation
# [3] = target: HSV-1 US11 full-length (US11^FL, aa 1-152), tag-free (HSV-1) (UniProt P04487); assay: SEC-MALS; aSEC (Superdex 200 10/300) with MALS/RI of NPM1^OD, US11^FL and their mixture, RNase A treated; 30 mM Tris-HCl pH 7.5, 150 mM NaCl, 5 mM MgCl2, 3 mM DTT
# [4] = target: B4; assay: ITC; NPM1 variants titrated into Rev^FL (tags cleaved); 25 C; 30 mM Tris-HCl pH 7.5, 150 mM NaCl, 5 mM MgCl2, 1 mM TCEP; VP-ITC; details: both partners purified
# [5] = target: the molecule itself; assay: SEC-MALS; aSEC (Superdex 200 10/300) with MALS/RI of NPM1^OD, US11^FL and their mixture, RNase A treated; 30 mM Tris-HCl pH 7.5, 150 mM NaCl, 5 mM MgCl2, 3 mM DTT
# [6] = target: B2; assay: ITC; NPM1 variants titrated into Rev^FL (tags cleaved); 25 C; 30 mM Tris-HCl pH 7.5, 150 mM NaCl, 5 mM MgCl2, 1 mM TCEP; VP-ITC; details: both partners purified
# [7] = target: B1; assay: as above; details: both partners purified
# [8] = target: T1, NPM1 full-length (NPM1^FL, aa 1-294), tag cleaved (UniProt P06748 1-294); assay: as above; details: both partners purified
# T1 construct: source: E. coli (BL21(DE3), pLysS BL21(DE3), CodonPlusRIL or BL21(Rosetta)), purified
# [9] = target: B3; assay: as above; details: both partners purified
Molecule,Kd [2] [µM],dH [4] [kJ/mol],stoichiometry N [4] [sites],also measured
"NPM1 full-length (NPM1^FL, aa 1-294), tag cleaved (from UniProt P06748 1-294) (natural protein)",1.4,–,–,Kd [1]: 4 µM
"NPM1 oligomerization domain (NPM1^OD, aa 1-122), tag cleaved (from UniProt P06748 1-122) (domain or fragment)",6.6,–,–,stoichiometry N (US11^FL monomer per NPM1^OD pentamer) [3]: 1
B1,–,-7.15 ± 0.837,0.85,–
B2,–,-15.9 ± 0.46,0.94,stoichiometry N [5]: 5
B3,–,-13.5 ± 1.3,0.76,–
B4,–,–,–,Kd [6]: 0.013 µM; Kd [7]: 5.8 µM; Kd [8]: 0.41 µM; Kd [9]: 18 µM
